In publication PMC8982864 (PLoS Biology, 2022):
Where a chain is given by its changes, count along the chain named. Names may count otherwise.

B1: CSPG4 domain 1 fragment D1_(401-560) with C-terminal GFP tag (domain or fragment, UniProt Q6UVK1 401-560, looked up)
chain: LAPEAWPAMELPEPCVPEPGLPPVFANFTQLLTISPLVVAEGGTAWLEWRHVQPTLDLMEAELRKSQVLFSVTRGARHGELELDIPGAQARKMFTLLDVVNRKARFIHDGSEDTSDQLVLEVSVTARVPMPSCLRRGQTYLLPIQVNPVNDPPHIIFPHG
notes: not shown: GFP, C-terminal, kept
B2: D1_(401-560) D457A, C-terminal GFP tag (domain or fragment)
chain: B1 chain with D57A
notes: as for B1
B3: D1_(401-560) E460A, C-terminal GFP tag (domain or fragment)
chain: B1 chain with E60A
notes: as for B1

Legend:
Test in all cases: ELISA
[1] = molecular target: CSPG4 domain 1 fragment D1_(401-560) with C-terminal GFP tag (UniProt Q6UVK1)
[2] = molecular target: truncated wild-type TcdB (residues 550-1902) (Clostridioides difficile (VPI 10463 …, UniProt P18177 550-1902)); details: both partners purified
[3] = molecular target: full-length Clostridioides difficile Toxin B (TcdB), C-terminal 6XHis-tag (Clostridioides difficile (VPI 10463 …, UniProt P18177 1-2366)); details: both partners purified

| Molecule | binding result [3] | further results |
| --- | --- | --- |
| truncated TcdB (550-1902) [change] (from UniProt P18177 550-1902) (domain or fragment) |  | fold reduction of binding against wild type [1]: 1 fold |
| B1 |  | binding result [2]: binds |
| B2 | binds |  |
| B3 | binds |  |
